Measured values from paper PMC11103505 (2024).
Substitutions are numbered along the chain they refer to.

B1: anti-AXL single domain antibody sdAb19 (VHH)
VHH: QVQLQESGGGMVQPGGSLRLSCAASGFTFTSYDMTWLRQTPGKGPEWVSTISTGGLRTYYGNSVKGRFIISRDNTKNTLYLQMNSLKPEDTALYYCARGPFTVADPRRGQGTQVTVSS
B2: anti-AXL single domain antibody sdAb20 (VHH)
VHH: B1 VHH with M11L, Q13R
B3: anti-AXL single domain antibody sdAb25 (VHH)
VHH: QVQLQESGGGLVQPGGSLRLSCVASGSIFSIYAMGWYRQAPGKQRELVAGISSGGSTNYADSVKGRFTISRDNAKNTVYLQMNSLKPEDTAVYYCNYDLVEAVTGEYDYWGQGTQVTVSS
B4: anti-AXL single domain antibody sdAb4 (VHH)
VHH: B3 VHH with E101K
B5: anti-AXL single domain antibody sdAb12 (VHH)
VHH: B3 VHH with Q13K

Tests used:
Experiment in all cases: SPR
[1] = molecular target: recombinant human AXL protein (human, UniProt P30530 26-451)
Target sequence in this assay (P30530 26-451): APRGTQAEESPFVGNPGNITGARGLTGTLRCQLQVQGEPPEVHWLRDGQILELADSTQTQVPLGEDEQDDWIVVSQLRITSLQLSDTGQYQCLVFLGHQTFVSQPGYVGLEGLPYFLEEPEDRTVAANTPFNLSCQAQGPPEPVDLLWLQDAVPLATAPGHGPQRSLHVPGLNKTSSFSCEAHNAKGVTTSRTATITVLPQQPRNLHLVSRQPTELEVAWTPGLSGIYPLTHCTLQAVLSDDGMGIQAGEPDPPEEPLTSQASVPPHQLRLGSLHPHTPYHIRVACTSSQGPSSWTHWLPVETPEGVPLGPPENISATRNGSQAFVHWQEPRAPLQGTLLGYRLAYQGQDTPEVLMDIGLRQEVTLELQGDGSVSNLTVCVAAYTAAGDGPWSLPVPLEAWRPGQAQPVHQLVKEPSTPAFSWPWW

[2] = molecular target: T1, recombinant mouse AXL protein (mouse, UniProt Q00993 19-445)
T1 chain: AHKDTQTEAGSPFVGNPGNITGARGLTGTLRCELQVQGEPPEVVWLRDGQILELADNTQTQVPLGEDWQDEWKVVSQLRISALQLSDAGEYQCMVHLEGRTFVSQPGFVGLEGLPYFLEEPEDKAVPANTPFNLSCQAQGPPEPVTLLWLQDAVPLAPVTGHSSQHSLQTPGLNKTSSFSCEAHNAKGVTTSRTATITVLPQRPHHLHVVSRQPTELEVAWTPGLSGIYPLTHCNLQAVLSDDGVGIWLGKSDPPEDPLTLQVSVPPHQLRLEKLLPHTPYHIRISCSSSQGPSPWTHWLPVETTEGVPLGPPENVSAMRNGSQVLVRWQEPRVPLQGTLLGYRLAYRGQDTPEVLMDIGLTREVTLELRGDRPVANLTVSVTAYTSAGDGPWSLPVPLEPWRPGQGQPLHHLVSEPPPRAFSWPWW

[3] = molecular target: T2, recombinant mouse AXL protein (mouse, UniProt Q00993 19-445)
T2 chain: T1 chain

[4] = molecular target: recombinant human AXL protein (human, UniProt P30530 26-451); remark: listed apart in the source
Target sequence in this assay (P30530 26-451): as the sequence (P30530 26-451) above

Row | Binder | Kd [1] | Kd [2] | Kd [3] | Kd [4]
1 | B1 | 24 nM | 11.8 nM |  | 
2 | B2 |  |  | 5.2 nM | 22 nM
3 | B3 | 9.1 nM | 439 nM |  | 
4 | B4 | 10.8 nM | 541 nM |  | 
5 | B5 | 7.7 nM | 354 nM |  | 
